According to PMC6780499, “Characterization, Recombinant Production and Structure-Function Analysis of NvCI, A Picomolar Metallocarboxypeptidase Inhibitor from the Marine Snail Nerita versicolor” (Marine Drugs, 2019):
No end group written: not given here.

Key:
Assay in all cases: Ki determination, tight-binding inhibition of metallocarboxypeptidase
Format in all cases: biochemical
[1] = target: T1, hCPA1 (Homo sapiens, UniProt P15085); conditions: tight-binding equation fit, equilibrium conditions; substrate AAFP 0.1mM, 20mM Tris-HCl pH 7.5, 500mM NaCl; preincubation 15 min; 37 °C; means (n = 3) ± SD
T1 sequence (P15085 111-419): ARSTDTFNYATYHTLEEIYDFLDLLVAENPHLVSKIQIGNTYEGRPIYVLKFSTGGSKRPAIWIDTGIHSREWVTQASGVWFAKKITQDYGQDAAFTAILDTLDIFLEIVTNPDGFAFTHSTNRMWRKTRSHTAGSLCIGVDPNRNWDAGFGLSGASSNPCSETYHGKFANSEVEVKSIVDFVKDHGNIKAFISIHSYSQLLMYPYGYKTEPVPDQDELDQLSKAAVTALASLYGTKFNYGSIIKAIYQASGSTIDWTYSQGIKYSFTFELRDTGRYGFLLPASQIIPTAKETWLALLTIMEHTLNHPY
Description: (§1) Inhibitory activities against CPA- and CPB-type forms (bovine and human variants of CPA1, CPA2, CPA4, CPB1, and TAFI) were assayed for all extracts, subject to the experimental conditions that enzyme (E), substrate (S) and inhibitor (I) concentrations as well as the [I]/[E] ratio and preincubation time followed the requirements for tight-binding inhibitor assays. Similar approaches were followed to measure the activities of proteases of different catalytic types, like pepsin, papain, trypsin and subtilisin [45, 46, 47, 48]. All assays were performed in triplicate at 25 °C in a multiplexed manner. For 96-well assays an iEMS spectrophotometer reader/dispenser FM (Labsystems, Finland) was used with a final reaction volume of 250 μL. For cuvette assays, a Cary 400 Bio spectrophotometer (Varian Inc., Palo Alto, CA, USA) spectrophotometer was used with a final reaction volume of 1 ml. The reactions were followed at 5 s intervals for 5 min and recorded as initial velocities. In the protease inhibition assays, mixtures of activity buffer, biological sample and enzyme were preincubated at 25 °C for 10min, before substrate addition. The assay conditions were as follows: for CPA-like enzymes, 7.0nM CPA, 0.1mM AAFP substrate in 20mM Tris-HCl pH 7.5, 500mMNaCl, 1% v/v dimethyl sulfoxide (DMSO), 0.05% w/v BRIJ-35 was used. For CPB-like enzymes, CPB 3.0nM CPB, 0.1mM AAFA substrate and activity buffer of 20 mM Tris-HCl pH [50].
(§2) The Ki values of natural and recombinant NvCI against bCPA1, hCPA1, hCPA2, rat CPA3, hCPA4, hCPB1, bTAFI, hTAFI, hCPD and hCPZ were determined by measuring the enzymatic residual activity (Vi/V0 = a) at different inhibitor concentrations and using a fixed enzyme and substrate concentrations as described above, where vi and v0 are the fraction of enzymatic activity in the presence and absence of inhibitor, respectively, in terms of initial velocities. The determination of Ki values was carried out on equilibrium conditions ([E0]/Ki ≤ 10), using a previously determined preincubation time of 15 min, required to establish enzyme-inhibitor equilibrium. Working temperature was 37 °C. The best estimates of Ki values were obtained by fitting the experimental data to the equation for tight-binding inhibitors by non-linear regression using the GraphPad Prisma 5 software (GraphPad Software, Inc., San Diego, CA, USA) at p < 0.05. The real Ki values against each of these A/B-type MCPs were calculated according to the equation described by Morrison and Copeland [19, 20].

[2] = target: T2, hCPZ (Homo sapiens, UniProt Q66K79); conditions: NI: No inhibitory activity detected for the [I]0 range from 1 nM to 1 mM
T2 sequence (Q66K79 19-652): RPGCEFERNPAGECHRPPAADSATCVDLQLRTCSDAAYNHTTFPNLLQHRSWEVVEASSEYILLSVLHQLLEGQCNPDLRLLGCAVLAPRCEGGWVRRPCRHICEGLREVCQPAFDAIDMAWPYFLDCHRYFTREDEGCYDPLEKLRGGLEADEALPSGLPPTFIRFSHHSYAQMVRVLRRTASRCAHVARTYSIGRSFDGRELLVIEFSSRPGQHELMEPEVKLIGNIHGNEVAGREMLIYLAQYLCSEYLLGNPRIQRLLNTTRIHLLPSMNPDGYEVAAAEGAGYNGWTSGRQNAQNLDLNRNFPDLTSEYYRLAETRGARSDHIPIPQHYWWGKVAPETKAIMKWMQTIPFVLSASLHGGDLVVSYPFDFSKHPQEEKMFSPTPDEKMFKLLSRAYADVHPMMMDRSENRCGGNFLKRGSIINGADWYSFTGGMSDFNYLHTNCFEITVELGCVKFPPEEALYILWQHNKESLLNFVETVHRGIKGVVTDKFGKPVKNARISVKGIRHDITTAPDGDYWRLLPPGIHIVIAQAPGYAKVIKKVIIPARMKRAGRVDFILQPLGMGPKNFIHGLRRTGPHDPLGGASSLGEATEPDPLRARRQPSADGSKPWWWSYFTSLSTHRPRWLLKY
Description: as §1, §2

[3] = target: T3, pCPB (Sus scrofa, UniProt P09955); conditions: tight-binding equation fit, equilibrium conditions; substrate AAFA 0.1mM; preincubation 15 min; 37 °C; means (n = 3) ± SD
T3 sequence (P09955 111-416): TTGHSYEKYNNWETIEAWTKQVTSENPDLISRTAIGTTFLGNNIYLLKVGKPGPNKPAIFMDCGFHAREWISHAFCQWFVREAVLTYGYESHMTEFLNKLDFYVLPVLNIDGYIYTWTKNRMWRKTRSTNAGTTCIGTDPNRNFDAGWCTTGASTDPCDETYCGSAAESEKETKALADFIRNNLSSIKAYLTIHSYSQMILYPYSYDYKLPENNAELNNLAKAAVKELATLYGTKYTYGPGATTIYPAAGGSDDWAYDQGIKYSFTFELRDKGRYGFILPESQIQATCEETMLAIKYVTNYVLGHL
Description: as §1, §2

[4] = target: T4, hCPB (Homo sapiens, UniProt P15086); conditions: tight-binding equation fit, equilibrium conditions; substrate AAFA 0.1mM; preincubation 15 min; 37 °C; means (n = 3) ± SD
T4 sequence (P15086 111-417): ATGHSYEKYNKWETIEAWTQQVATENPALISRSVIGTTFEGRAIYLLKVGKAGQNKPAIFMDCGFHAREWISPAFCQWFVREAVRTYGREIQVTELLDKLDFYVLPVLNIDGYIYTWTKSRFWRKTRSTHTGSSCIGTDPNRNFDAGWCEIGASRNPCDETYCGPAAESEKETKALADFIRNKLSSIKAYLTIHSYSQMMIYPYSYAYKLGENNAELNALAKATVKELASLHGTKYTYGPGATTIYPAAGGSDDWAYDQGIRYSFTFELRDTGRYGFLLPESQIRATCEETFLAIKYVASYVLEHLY
Description: as §1, §2

Ki [1]: 1.8 ± 0.2 pM | Ki [2]: > 1000 µM | Ki [3]: 0.00065 ± 1.22e-05 µM | Ki [4]: 0.000111 ± 4.7e-06 µM
Substance: NvCI: 53-residue, three-disulphide proteinaceous metallocarboxypeptidase inhibitor from the marine snail Nerita versicolor; major isoform; UniProt P86912 (FHVPDDRPCINPGRCPLVPDATCTFVCKAADNDFGYECQHVWTFEGQRVGCYA; disulfide (positions not given here); also: three disulphides, pairing not given here; UniProt P86912 1-53, looked up)
